Molecular target: Vitronectin purified from human plasma (human) (UniProt P04004)
Assay: ELISA: biotinylated suPAR without uPA1-48 on vitronectin-coated wells

Vitronectin purified from human plasma (human), sequence (P04004 20-478): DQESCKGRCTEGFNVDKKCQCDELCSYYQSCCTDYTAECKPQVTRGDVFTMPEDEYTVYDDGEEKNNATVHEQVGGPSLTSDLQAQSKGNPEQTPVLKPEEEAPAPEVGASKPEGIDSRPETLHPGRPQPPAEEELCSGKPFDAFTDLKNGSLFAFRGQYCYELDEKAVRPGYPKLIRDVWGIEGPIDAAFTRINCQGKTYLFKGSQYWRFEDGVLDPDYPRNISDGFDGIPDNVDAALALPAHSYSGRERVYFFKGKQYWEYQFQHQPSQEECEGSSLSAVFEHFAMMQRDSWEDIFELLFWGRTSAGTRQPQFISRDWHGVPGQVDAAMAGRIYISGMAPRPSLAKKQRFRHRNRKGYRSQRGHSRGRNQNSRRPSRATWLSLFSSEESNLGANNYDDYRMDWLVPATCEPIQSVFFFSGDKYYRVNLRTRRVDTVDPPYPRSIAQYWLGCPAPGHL

Substance: Soluble recombinant human urokinase receptor (suPAR) (from UniProt Q03405 23-299)
- mean absorbance at 450 nm: 0.03 OD450

Reference: US20040265797A1
